Data from patent publication US20230272056A1 (Merck Sharp & Dohme, published 2023).
Residue numbers refer to the chain shown, from its start. Names may count otherwise.

B1: VL T51Y (48BIT) (Fab, V domains shown)
VH: EVQLVQSGAEVKKPGASVKVSCKASGYTFTSYWMHWVRQAPGQGLEWMGRIDPQSGGIKYAQKFQGRATLTVDTSTSTAYMELSRLRSDDTAVYYCARWDYGGYFDVWGQGTLVTVSS
VL: DIQMTQSPSSLSASVGDRVTITCRASQDITNYLNWYQQKPGKAVKLLIYYYSRLHSGVPSRFSGSGSGTDYTLTISSLQPEDFATYFCQQGDTLPWTFGQGTKLEIKR
B2: VL S56Y (53BIT) (Fab, V domains shown)
VH: B1 VH
VL: B1 VL with Y51T, S56Y
B3: VL S52Y (49BIT) (Fab, V domains shown)
VH: B1 VH
VL: B1 VL with Y51T, S52Y
B4: VL R24Y (38BIT) (Fab, V domains shown)
VH: B1 VH
VL: B1 VL with R24Y, Y51T
B5: VL Q89Y (54BIT) (Fab, V domains shown)
VH: B1 VH
VL: B1 VL with Y51T, Q89Y
B6: VL S26Y (40BIT) (Fab, V domains shown)
VH: B1 VH
VL: B1 VL with S26Y, Y51T
B7: VL T93Y (58BIT) (Fab, V domains shown)
VH: B1 VH
VL: B1 VL with Y51T, T93Y
B8: VL T30Y (44BIT) (Fab, V domains shown)
VH: B1 VH
VL: B1 VL with T30Y, Y51T
B9: VL Q90Y (55BIT) (Fab, V domains shown)
VH: B1 VH
VL: B1 VL with Y51T, Q90Y
B10: VL R53Y (50BIT) (Fab, V domains shown)
VH: B1 VH
VL: B1 VL with Y51T, R53Y
B11: VH G57D (27BIT) (Fab, V domains shown)
VH: B1 VH with G57D
VL: B1 VL with Y51T
notes: Light chain: parental 20E6 LC, implied
B12: VH H35K (30BIT) (Fab, V domains shown)
VH: B1 VH with H35K
VL: B1 VL with Y51T
notes: as for B11
B13: VH G57E (63BIT) (Fab, V domains shown)
VH: B1 VH with G57E
VL: B1 VL with Y51T
notes: as for B11
B14: VH G102S (29BIT) (Fab, V domains shown)
VH: B1 VH with G102S
VL: B1 VL with Y51T
notes: as for B11

Molecular target: T1, human LAP-TGFB1 Fc fusion (human)
T1 construct: also called human LAP-TGFβ1-Fc; human LAP-TGFβ-Fc isoform 1
T1 sequence (chain, as listed by the source limits assumed): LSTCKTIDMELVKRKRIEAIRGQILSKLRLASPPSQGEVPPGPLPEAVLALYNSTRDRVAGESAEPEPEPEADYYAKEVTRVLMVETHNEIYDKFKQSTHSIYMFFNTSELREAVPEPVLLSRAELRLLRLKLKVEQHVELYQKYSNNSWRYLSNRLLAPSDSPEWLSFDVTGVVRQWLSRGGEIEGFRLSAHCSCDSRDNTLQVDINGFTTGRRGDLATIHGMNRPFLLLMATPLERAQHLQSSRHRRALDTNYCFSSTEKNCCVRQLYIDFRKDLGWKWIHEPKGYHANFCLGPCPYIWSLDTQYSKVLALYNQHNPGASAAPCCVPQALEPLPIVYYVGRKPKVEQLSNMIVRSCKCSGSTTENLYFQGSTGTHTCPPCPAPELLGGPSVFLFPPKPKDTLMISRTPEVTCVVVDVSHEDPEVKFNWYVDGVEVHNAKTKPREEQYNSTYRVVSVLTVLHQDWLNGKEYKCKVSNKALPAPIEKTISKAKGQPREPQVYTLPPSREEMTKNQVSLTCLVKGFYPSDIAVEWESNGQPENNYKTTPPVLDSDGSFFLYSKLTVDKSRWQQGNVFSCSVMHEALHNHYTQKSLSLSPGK
Assay: BLI off-rate screen
Protocol: (§1) The Fab mutants including a positive control, 20E6 Fab, and a negative control Fab (Molecular Innovations, catalog HU-FAB-4510) were diluted to 200 nM in assay buffer and loaded to FAB2G sensors for 180 seconds followed by a one-hour incubation at room temperature in assay buffer to equilibrate the tips. The Fab loaded sensors were assessed for binding with 100 nM human LAP-TGFβ for 180 seconds followed by a 180 second dissociation phase in assay buffer on a ForteBio HTX (software version 9.0.0.66). Non-specific binding to the negative control Fab was subtracted and the binding sensorgrams were aligned to the start of the association phase on the X and Y axis. The Fab binding was fit with the 1:1 binding model, dissociation phase only, with local fitting using ForteBio Data Analysis 9.0 software.
Twenty-three variants containing a single tyrosine substitution in the light chain CDRs (at one of amino acid positions 24-31, 33, 34, 51-56, and 89-95 according to Kabat numbering scheme) and 21 similar heavy chain CDR variants (at amino acids positions 28-31, 33-35, 50-58 including 52a, 95, 96, 98, and 99 according to Kabat numbering scheme) were generated according to FIG. 1 and listed in Table 6 and their interactions with human LAP-TGFb1 were analyzed by ForteBio interferometry. […] In those sequences the VL is correct, even though these sequences are from the heavy chain. Thus, the VL_X ##Y refers to the position of the tyrosine mutation within the antibody, regardless of whether the sequence is a heavy or light chain.

Binding response [nm] | Fold change [fold] | koff [s⁻¹] | binding result | Binder
0.204 | 0.8 | 0.0508 |  | B1
0.344 | 1.3 | 0.0324 |  | B2
0.431 | 1 | 0.0409 |  | B3
0.446 | 1.6 | 0.027 |  | B4
0.035 |  |  | no binding (tested: 100 nM antigen) | B5
0.371 | 1.5 | 0.0283 |  | B6
0.586 | 1.5 | 0.0273 |  | B7
0.472 | 2.6 | 0.0162 |  | B8
0.04 |  |  | no binding (tested: 100 nM antigen) | B9
0.365 | 1.6 | 0.027 |  | B10

Molecular target: T1, human LAP-TGFB1 Fc fusion
Assay: BLI off-rate screen
Remark: another data set of the same source
Protocol: as §1

Binding response [nm] | Fold change [fold] | koff [s⁻¹] | Binder
0.582 | 1.3 | 0.0337 | B11
0.115 | 0.8 | 0.0548 | B12
0.69 | 1.1 | 0.0393 | B13
0.087 | 0.5 | 0.0845 | B14
